{"source": "patent US20040260064", "key": {"[1]": {"system": "recombinant human macrophage stimulating protein (MSP)"}, "[2]": {"system": "recombinant murine macrophage stimulating protein (MSP)"}}, "data": [{"substance": "human kallikrein (Enzyme System Products)", "values": [{"measurement": "cleavage of proMSP analog seen by SDS-PAGE under reducing conditions", "setting": "human MSP C672A analog", "value": "Kallikrein treatment efficiently cleaves proMSP or proMSP analog between the α and β subunits"}, {"measurement": "cleavage of proMSP seen by SDS-PAGE under reducing conditions", "setting": "[1]", "value": "Kallikrein treatment efficiently cleaves proMSP or proMSP analog between the α and β subunits"}, {"measurement": "cleavage of proMSP seen by SDS-PAGE under reducing conditions", "setting": "[2]", "value": "Kallikrein treatment efficiently cleaves proMSP or proMSP analog between the α and β subunits"}, {"measurement": "cleavage of proMSP analog seen by SDS-PAGE under reducing conditions", "setting": "murine MSP C677A analog", "value": "Kallikrein treatment efficiently cleaves proMSP or proMSP analog between the α and β subunits"}]}]}
